{"source": "paper PMC4040926", "origin": "cited, not measured here", "molecular_target": "SNARE complex (Rattus norvegicus) (UniProt P32851)", "sequence (P32851 whole entry, chain 1 of 3)": "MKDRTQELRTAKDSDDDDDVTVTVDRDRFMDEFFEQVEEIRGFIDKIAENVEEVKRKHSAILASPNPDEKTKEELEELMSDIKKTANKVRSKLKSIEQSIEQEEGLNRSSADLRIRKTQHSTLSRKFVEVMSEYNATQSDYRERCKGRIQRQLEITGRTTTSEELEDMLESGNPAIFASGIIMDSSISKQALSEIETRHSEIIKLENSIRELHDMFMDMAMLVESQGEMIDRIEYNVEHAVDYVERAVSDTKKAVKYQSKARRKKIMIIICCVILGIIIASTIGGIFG", "sequence (B2RAU4 whole entry, chain 2 of 3, further chain)": "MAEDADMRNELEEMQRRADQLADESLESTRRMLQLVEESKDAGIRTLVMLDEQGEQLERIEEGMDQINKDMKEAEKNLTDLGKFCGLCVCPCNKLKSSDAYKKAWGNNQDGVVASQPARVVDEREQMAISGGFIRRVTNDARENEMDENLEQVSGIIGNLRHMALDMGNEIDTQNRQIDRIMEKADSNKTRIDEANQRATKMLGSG", "sequence (P63044 2-116, chain 3 of 3, further chain)": "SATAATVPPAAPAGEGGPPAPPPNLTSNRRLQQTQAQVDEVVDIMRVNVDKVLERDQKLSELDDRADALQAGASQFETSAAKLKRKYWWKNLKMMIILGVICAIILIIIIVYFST", "experiment": "ITC", "data": [{"substance": "Complexin-I 26-83 (from UniProt P63041)", "values": [{"measurement": "Kd", "value": 25.3, "unit": "nM"}]}]}
